Assay results reported in PMC10238739, “Interaction with single-stranded DNA-binding protein modulates Escherichia coli RadD DNA repair activities” (The Journal of Biological Chemistry, 2023).

What follows are binders tested against FAM labeled SSB C-terminal peptide … (E. coli) (assay: fluorescence polarisation; fluorescence anisotropy; 10 nM 5-FAM SSB C-terminal peptide, RadD or variant titrated up to 30 μM; 25 mM Tris-acetate pH 7.5, 200 mM potassium glutamate, 10 mM magnesium acetate, 1 mM DTT, 0.1 μg/ml BSA; 15 min at room temperature; apparent KD, one-site fit). Details: not given.

Binder | Kd [µM]
Escherichia coli RadD, wild type (enzyme, E. coli) MIFTLRPYQQEAVDATLNHFRRHKTPAVIVLPTGAGKSLVIAELARLARGRVLVLAHVKELVAQNHAKYQALGLEADIFAAGLKRKESHGKVVFGSVQSVARNLDAFQGEFSLLIVDECHRIGDDEESQYQQILTHLTKVNPHLRLLGLTATPFRLGKGWIYQFHYHGMVRGDEKALFRDCIYELPLRYMIKHGYLTPPERLDMPVVQYDFSRLQAQSNGLFSEADLNRELKKQQRITPHIISQIMEFAATRKGVMIFAATVEHAKEIVGLLPAEDAALITGDTPGAERDVLIENFKAQRFRYLVNVAVLTTGFDAPHVDLIAILRPTESVSLYQQIVGRGLRLAPGKTDCLILDYAGNPHDLYAPEVGTPKGKSDNVPVQVFCPACGFANTFWGKTTADGTLIEHFGRRCQGWFEDDDGHREQCDFRFRFKNCPQCNAENDIAARRCRECDTVLVDPDDMLKAALRLKDALVLRCSGMSLQHGHDEKGEWLKITYYDEDGADVSERFRLQTPAQRTAFEQLFIRPHTRTPGIPLRWITAADILAQQALLRHPDFVVARMKGQYWQVREKVFDYEGRFRLAHELRG | 5.4
RadD R21E (enzyme) MIFTLRPYQQEAVDATLNHFERHKTPAVIVLPTGAGKSLVIAELARLARGRVLVLAHVKELVAQNHAKYQALGLEADIFAAGLKRKESHGKVVFGSVQSVARNLDAFQGEFSLLIVDECHRIGDDEESQYQQILTHLTKVNPHLRLLGLTATPFRLGKGWIYQFHYHGMVRGDEKALFRDCIYELPLRYMIKHGYLTPPERLDMPVVQYDFSRLQAQSNGLFSEADLNRELKKQQRITPHIISQIMEFAATRKGVMIFAATVEHAKEIVGLLPAEDAALITGDTPGAERDVLIENFKAQRFRYLVNVAVLTTGFDAPHVDLIAILRPTESVSLYQQIVGRGLRLAPGKTDCLILDYAGNPHDLYAPEVGTPKGKSDNVPVQVFCPACGFANTFWGKTTADGTLIEHFGRRCQGWFEDDDGHREQCDFRFRFKNCPQCNAENDIAARRCRECDTVLVDPDDMLKAALRLKDALVLRCSGMSLQHGHDEKGEWLKITYYDEDGADVSERFRLQTPAQRTAFEQLFIRPHTRTPGIPLRWITAADILAQQALLRHPDFVVARMKGQYWQVREKVFDYEGRFRLAHELRG | > 30
RadD R49E (enzyme) MIFTLRPYQQEAVDATLNHFRRHKTPAVIVLPTGAGKSLVIAELARLAEGRVLVLAHVKELVAQNHAKYQALGLEADIFAAGLKRKESHGKVVFGSVQSVARNLDAFQGEFSLLIVDECHRIGDDEESQYQQILTHLTKVNPHLRLLGLTATPFRLGKGWIYQFHYHGMVRGDEKALFRDCIYELPLRYMIKHGYLTPPERLDMPVVQYDFSRLQAQSNGLFSEADLNRELKKQQRITPHIISQIMEFAATRKGVMIFAATVEHAKEIVGLLPAEDAALITGDTPGAERDVLIENFKAQRFRYLVNVAVLTTGFDAPHVDLIAILRPTESVSLYQQIVGRGLRLAPGKTDCLILDYAGNPHDLYAPEVGTPKGKSDNVPVQVFCPACGFANTFWGKTTADGTLIEHFGRRCQGWFEDDDGHREQCDFRFRFKNCPQCNAENDIAARRCRECDTVLVDPDDMLKAALRLKDALVLRCSGMSLQHGHDEKGEWLKITYYDEDGADVSERFRLQTPAQRTAFEQLFIRPHTRTPGIPLRWITAADILAQQALLRHPDFVVARMKGQYWQVREKVFDYEGRFRLAHELRG | > 30
RadD R145E (enzyme) MIFTLRPYQQEAVDATLNHFRRHKTPAVIVLPTGAGKSLVIAELARLARGRVLVLAHVKELVAQNHAKYQALGLEADIFAAGLKRKESHGKVVFGSVQSVARNLDAFQGEFSLLIVDECHRIGDDEESQYQQILTHLTKVNPHLELLGLTATPFRLGKGWIYQFHYHGMVRGDEKALFRDCIYELPLRYMIKHGYLTPPERLDMPVVQYDFSRLQAQSNGLFSEADLNRELKKQQRITPHIISQIMEFAATRKGVMIFAATVEHAKEIVGLLPAEDAALITGDTPGAERDVLIENFKAQRFRYLVNVAVLTTGFDAPHVDLIAILRPTESVSLYQQIVGRGLRLAPGKTDCLILDYAGNPHDLYAPEVGTPKGKSDNVPVQVFCPACGFANTFWGKTTADGTLIEHFGRRCQGWFEDDDGHREQCDFRFRFKNCPQCNAENDIAARRCRECDTVLVDPDDMLKAALRLKDALVLRCSGMSLQHGHDEKGEWLKITYYDEDGADVSERFRLQTPAQRTAFEQLFIRPHTRTPGIPLRWITAADILAQQALLRHPDFVVARMKGQYWQVREKVFDYEGRFRLAHELRG | > 30

Each binder was assayed against Escherichia coli single-stranded DNA-binding protein (SSB), full-length (E. coli, UniProt P0AGE0 1-178) (assay: cell-based or functional assay). Details: not given.
Escherichia coli single-stranded DNA-binding protein (SSB), full-length, sequence (P0AGE0 whole entry): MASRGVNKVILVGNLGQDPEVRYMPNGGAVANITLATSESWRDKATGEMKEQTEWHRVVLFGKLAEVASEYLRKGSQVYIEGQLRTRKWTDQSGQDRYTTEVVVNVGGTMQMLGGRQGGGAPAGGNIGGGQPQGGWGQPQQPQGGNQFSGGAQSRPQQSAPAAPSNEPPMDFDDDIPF

Binder | ATPase rate of 200 nM RadD on titration of SSB from 0 to 40 μM [fold]
Escherichia coli RadD, wild type (enzyme, E. coli) MIFTLRPYQQEAVDATLNHFRRHKTPAVIVLPTGAGKSLVIAELARLARGRVLVLAHVKELVAQNHAKYQALGLEADIFAAGLKRKESHGKVVFGSVQSVARNLDAFQGEFSLLIVDECHRIGDDEESQYQQILTHLTKVNPHLRLLGLTATPFRLGKGWIYQFHYHGMVRGDEKALFRDCIYELPLRYMIKHGYLTPPERLDMPVVQYDFSRLQAQSNGLFSEADLNRELKKQQRITPHIISQIMEFAATRKGVMIFAATVEHAKEIVGLLPAEDAALITGDTPGAERDVLIENFKAQRFRYLVNVAVLTTGFDAPHVDLIAILRPTESVSLYQQIVGRGLRLAPGKTDCLILDYAGNPHDLYAPEVGTPKGKSDNVPVQVFCPACGFANTFWGKTTADGTLIEHFGRRCQGWFEDDDGHREQCDFRFRFKNCPQCNAENDIAARRCRECDTVLVDPDDMLKAALRLKDALVLRCSGMSLQHGHDEKGEWLKITYYDEDGADVSERFRLQTPAQRTAFEQLFIRPHTRTPGIPLRWITAADILAQQALLRHPDFVVARMKGQYWQVREKVFDYEGRFRLAHELRG | ~3

Each binder was assayed on Nc1ncnc2c1ncn2[C@@H]1O[C@H](COP(=O)(O)OP(=O)(O)OP(=O)(O)O)[C@@H](O)[C@H]1O (assay: coupled spectrophotometric ATPase assay (NADH oxidation)). Details: no SSB, no DNA, 200 nM RadD, 10 mM Mg acetate, 200 mM K glutamate, pH 7.5, 37 °C.
Type: biochemical, Escherichia coli
From the text: coupled spectrophotometric ATPase assay (NADH oxidation) on RadD

Binder | Km [µM] | Vmax [µM/min]
RadD (Escherichia coli K-12) (protein, full-length, untagged; expressed from plasmid pEAW724 in E. coli STL2669/pT7pol26; conventional chromatography) MIFTLRPYQQEAVDATLNHFRRHKTPAVIVLPTGAGKSLVIAELARLARGRVLVLAHVKELVAQNHAKYQALGLEADIFAAGLKRKESHGKVVFGSVQSVARNLDAFQGEFSLLIVDECHRIGDDEESQYQQILTHLTKVNPHLRLLGLTATPFRLGKGWIYQFHYHGMVRGDEKALFRDCIYELPLRYMIKHGYLTPPERLDMPVVQYDFSRLQAQSNGLFSEADLNRELKKQQRITPHIISQIMEFAATRKGVMIFAATVEHAKEIVGLLPAEDAALITGDTPGAERDVLIENFKAQRFRYLVNVAVLTTGFDAPHVDLIAILRPTESVSLYQQIVGRGLRLAPGKTDCLILDYAGNPHDLYAPEVGTPKGKSDNVPVQVFCPACGFANTFWGKTTADGTLIEHFGRRCQGWFEDDDGHREQCDFRFRFKNCPQCNAENDIAARRCRECDTVLVDPDDMLKAALRLKDALVLRCSGMSLQHGHDEKGEWLKITYYDEDGADVSERFRLQTPAQRTAFEQLFIRPHTRTPGIPLRWITAADILAQQALLRHPDFVVARMKGQYWQVREKVFDYEGRFRLAHELRG | 640 ± 76 | 29.4
RadD (Escherichia coli K-12; R21E) (protein, full-length, untagged; expressed from plasmid pEAW724 in E. coli STL2669/pT7pol26; conventional chromatography) MIFTLRPYQQEAVDATLNHFERHKTPAVIVLPTGAGKSLVIAELARLARGRVLVLAHVKELVAQNHAKYQALGLEADIFAAGLKRKESHGKVVFGSVQSVARNLDAFQGEFSLLIVDECHRIGDDEESQYQQILTHLTKVNPHLRLLGLTATPFRLGKGWIYQFHYHGMVRGDEKALFRDCIYELPLRYMIKHGYLTPPERLDMPVVQYDFSRLQAQSNGLFSEADLNRELKKQQRITPHIISQIMEFAATRKGVMIFAATVEHAKEIVGLLPAEDAALITGDTPGAERDVLIENFKAQRFRYLVNVAVLTTGFDAPHVDLIAILRPTESVSLYQQIVGRGLRLAPGKTDCLILDYAGNPHDLYAPEVGTPKGKSDNVPVQVFCPACGFANTFWGKTTADGTLIEHFGRRCQGWFEDDDGHREQCDFRFRFKNCPQCNAENDIAARRCRECDTVLVDPDDMLKAALRLKDALVLRCSGMSLQHGHDEKGEWLKITYYDEDGADVSERFRLQTPAQRTAFEQLFIRPHTRTPGIPLRWITAADILAQQALLRHPDFVVARMKGQYWQVREKVFDYEGRFRLAHELRG | 654 ± 52 | 42.3
RadD (Escherichia coli K-12; R49E) (protein, full-length, untagged; expressed from plasmid pEAW724 in E. coli STL2669/pT7pol26; conventional chromatography) MIFTLRPYQQEAVDATLNHFRRHKTPAVIVLPTGAGKSLVIAELARLAEGRVLVLAHVKELVAQNHAKYQALGLEADIFAAGLKRKESHGKVVFGSVQSVARNLDAFQGEFSLLIVDECHRIGDDEESQYQQILTHLTKVNPHLRLLGLTATPFRLGKGWIYQFHYHGMVRGDEKALFRDCIYELPLRYMIKHGYLTPPERLDMPVVQYDFSRLQAQSNGLFSEADLNRELKKQQRITPHIISQIMEFAATRKGVMIFAATVEHAKEIVGLLPAEDAALITGDTPGAERDVLIENFKAQRFRYLVNVAVLTTGFDAPHVDLIAILRPTESVSLYQQIVGRGLRLAPGKTDCLILDYAGNPHDLYAPEVGTPKGKSDNVPVQVFCPACGFANTFWGKTTADGTLIEHFGRRCQGWFEDDDGHREQCDFRFRFKNCPQCNAENDIAARRCRECDTVLVDPDDMLKAALRLKDALVLRCSGMSLQHGHDEKGEWLKITYYDEDGADVSERFRLQTPAQRTAFEQLFIRPHTRTPGIPLRWITAADILAQQALLRHPDFVVARMKGQYWQVREKVFDYEGRFRLAHELRG | 464 ± 44 | 51
RadD (Escherichia coli K-12; R145E) (protein, full-length, untagged; expressed from plasmid pEAW724 in E. coli STL2669/pT7pol26; conventional chromatography) MIFTLRPYQQEAVDATLNHFRRHKTPAVIVLPTGAGKSLVIAELARLARGRVLVLAHVKELVAQNHAKYQALGLEADIFAAGLKRKESHGKVVFGSVQSVARNLDAFQGEFSLLIVDECHRIGDDEESQYQQILTHLTKVNPHLELLGLTATPFRLGKGWIYQFHYHGMVRGDEKALFRDCIYELPLRYMIKHGYLTPPERLDMPVVQYDFSRLQAQSNGLFSEADLNRELKKQQRITPHIISQIMEFAATRKGVMIFAATVEHAKEIVGLLPAEDAALITGDTPGAERDVLIENFKAQRFRYLVNVAVLTTGFDAPHVDLIAILRPTESVSLYQQIVGRGLRLAPGKTDCLILDYAGNPHDLYAPEVGTPKGKSDNVPVQVFCPACGFANTFWGKTTADGTLIEHFGRRCQGWFEDDDGHREQCDFRFRFKNCPQCNAENDIAARRCRECDTVLVDPDDMLKAALRLKDALVLRCSGMSLQHGHDEKGEWLKITYYDEDGADVSERFRLQTPAQRTAFEQLFIRPHTRTPGIPLRWITAADILAQQALLRHPDFVVARMKGQYWQVREKVFDYEGRFRLAHELRG | 698 ± 75 | 28.4
